This assay deals with T1, MUC16 on OVCAR-3 cells (human, UniProt Q8WXI7 1-14507).
T1 construct: whole, on cells
As to the kind of experiment: FACS binding to OVCAR-3 cells.

B1: BSMUC16/CD3-001 (bispecific antibody, V domains shown)
VH 1: QVQLVESGGGLVKPGGSLRLSCAASGFTFSNYYMSWVRQAPGKGLEWISYISGRGSTIFYADSVKGRITISRDNAKNSLFLQMNSLRAEDTAVYFCVKDRGGYSPYWGQGTLVTVSS
VH 2: EVQLVESGGGLVQPGRSLRLSCAASGFTFDDYSMHWVRQAPGKGLEWVSGISWNSGSKGYADSVKGRFTISRDNAKNSLYLQMNSLRAEDTALYYCAKYGSGYGKFYHYGLDVWGQGTTVTVSS
VL: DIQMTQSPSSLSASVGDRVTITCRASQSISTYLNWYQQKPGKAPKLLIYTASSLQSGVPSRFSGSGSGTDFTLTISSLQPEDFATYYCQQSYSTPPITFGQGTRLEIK
notes: It was biotinylated in the ELISA and 89Zr-DFO labelled in the PET study; also called REGN4018; ubamatamab
As for B1, the binding result is “binds”.
